First the molecules themselves.
B1: glmS ribozyme (parent)
chain: AUAAAAGCGCCAGAACUACAGAAAUGUAGUUGACGAGGAGGAGGUUUAUCGAAUUUUCGGCGGAUGCCUCCAAA

Details in all cases: with glucosamine-6-phosphate
Variants of B1 are the subject of series [1]. The series can be described thus: kcat; higher = faster cleavage; RNA array. Put shortly: (§1)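 E. coli RNA polymerase transcribed barcoded ribozyme variants in situ on sequenced MiSeq chips, which were tracked via a hybridised Cy3 probe at 37 °C. Tiles were imaged over ~14 h after glucosamine-6-phosphate (40 μM to 10 mM) in HEPES/KCl/Mg(OAc)2 buffer was flowed in. Normalised per-tile medians were fit to one- or two-exponential decays for kobs, and kcat and KM came from weighted Michaelis–Menten fits.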

The variants in series [2] derive from B1. The series is described as follows: self-cleavage kobs at 40 uM GlcN6P; higher = faster cleavage; RNA array. An outline of the steps:
as §1

Series [3] covers variants of B1. The series can be described thus: self-cleavage kobs at 160 uM GlcN6P; higher = faster cleavage; RNA array. Put shortly: as §1
In series [4] the parent is B1. The series can be described thus: self-cleavage kobs at 2500 uM GlcN6P; higher = faster cleavage; RNA array. An outline of the steps:
as §1

The variants in series [5] derive from B1. The series can be described thus: self-cleavage kobs at 10000 uM GlcN6P; higher = faster cleavage; RNA array. An outline of the steps:
as §1

In series [6] the parent is B1. The series is described as follows: self-cleavage kobs at 640 uM GlcN6P; higher = faster cleavage; RNA array. An outline of the steps:
as §1

The variants in series [7] derive from B1. The series is described as follows: KM; higher = weaker cofactor use; RNA array. Put shortly: as §1

± gives the standard error. For some of these results: Fewer inactive variants are shown than the library holds.

As a reminder, the kcat is the maximal rate divided by the concentration of active sites. As for C11G C61U, the kcat in series [1] is less than 1e-05 s⁻¹. Further, the “self-cleavage kobs at 40 uM GlcN6P” value in series [2] was less than 1e-05 s⁻¹. The “self-cleavage kobs at 160 uM GlcN6P” value in series [3] is less than 1e-05 s⁻¹. Further, in series [4], the “self-cleavage kobs at 2500 uM GlcN6P” value is less than 1e-05 s⁻¹. Further, the “self-cleavage kobs at 10000 uM GlcN6P” value in series [5] is less than 1e-05 s⁻¹.

Consider U49A G66C, for which, in series [1], the kcat was less than 1e-05 s⁻¹. For the same variant, the “self-cleavage kobs at 640 uM GlcN6P” value in series [6] is less than 1e-05 s⁻¹.

As to G41U A42U, the catalytic constant (kcat) in series [1] came out at 0.00136 ± 0.00056 s⁻¹. In series [2], the “self-cleavage kobs at 40 uM GlcN6P” value stood at 9.43e-05 ± 1.1e-05 s⁻¹. In addition, the “self-cleavage kobs at 160 uM GlcN6P” value in series [3] was 0.000106 ± 1.9e-05 s⁻¹. Further, the “self-cleavage kobs at 640 uM GlcN6P” value in series [6] was determined as 0.000464 ± 5.5e-05 s⁻¹. The “self-cleavage kobs at 2500 uM GlcN6P” value in series [4] worked out at 0.00119 ± 0.00014 s⁻¹. Besides, the “self-cleavage kobs at 10000 uM GlcN6P” value in series [5] amounted to 0.00108 ± 0.00015 s⁻¹.

Broadly, the KM is the concentration of substrate that gives half-maximal velocity. Turning to A14C A53C, the kcat in series [1] is 0.00124 ± 0.00016 s⁻¹. Besides, the KM in series [7] is 2550 ± 490 µM. Besides, in series [2], the “self-cleavage kobs at 40 uM GlcN6P” value came out at 2.58e-05 ± 1.2e-05 s⁻¹. Also, the “self-cleavage kobs at 160 uM GlcN6P” value in series [3] came out at 6.39e-05 ± 1e-05 s⁻¹. Besides, in series [6], the “self-cleavage kobs at 640 uM GlcN6P” value worked out at 0.000267 ± 3.4e-05 s⁻¹. Besides, the “self-cleavage kobs at 2500 uM GlcN6P” value in series [4] was 0.000659 ± 7.9e-05 s⁻¹. Further, the “self-cleavage kobs at 10000 uM GlcN6P” value in series [5] turned out to be 0.000924 ± 0.00013 s⁻¹.

In the case of C11U U54G, in series [1], the kcat is 0.00114 ± 0.00053 s⁻¹. Besides, in series [2], the “self-cleavage kobs at 40 uM GlcN6P” value was 5.3e-05 ± 1.1e-05 s⁻¹. For the same variant, the “self-cleavage kobs at 160 uM GlcN6P” value in series [3] is 0.000153 ± 2.1e-05 s⁻¹. For the same variant, in series [6], the “self-cleavage kobs at 640 uM GlcN6P” value worked out at 0.000277 ± 3.9e-05 s⁻¹. Further, the “self-cleavage kobs at 2500 uM GlcN6P” value in series [4] was 0.000642 ± 9.5e-05 s⁻¹. Also, the “self-cleavage kobs at 10000 uM GlcN6P” value in series [5] turned out to be 0.00164 ± 0.00025 s⁻¹.

Regarding U46C C70A, in series [1], the turnover number (kcat) is 0.000216 ± 5.4e-05 s⁻¹. In addition, the “self-cleavage kobs at 160 uM GlcN6P” value in series [3] was 5.11e-05 ± 2.3e-05 s⁻¹. Further, the “self-cleavage kobs at 640 uM GlcN6P” value in series [6] came out at 0.000105 ± 1.7e-05 s⁻¹. In series [4], the “self-cleavage kobs at 2500 uM GlcN6P” value was 0.000151 ± 2.5e-05 s⁻¹. Also, the “self-cleavage kobs at 10000 uM GlcN6P” value in series [5] came to 0.000347 ± 8.7e-05 s⁻¹.

Turning to A14U A15G, in series [1], the catalytic constant (kcat) stood at 0.0123 ± 0.0018 s⁻¹. In series [7], the KM stood at 2410 ± 520 µM. Besides, the “self-cleavage kobs at 40 uM GlcN6P” value in series [2] came out at 0.000225 ± 4e-05 s⁻¹. Besides, the “self-cleavage kobs at 160 uM GlcN6P” value in series [3] turned out to be 0.000672 ± 0.00015 s⁻¹. For the same variant, in series [6], the “self-cleavage kobs at 640 uM GlcN6P” value was determined as 0.00234 ± 0.00043 s⁻¹. For the same variant, the “self-cleavage kobs at 2500 uM GlcN6P” value in series [4] turned out to be 0.0077 ± 0.0012 s⁻¹. In series [5], the “self-cleavage kobs at 10000 uM GlcN6P” value was found to be 0.00944 ± 0.0012 s⁻¹.

As to U47A U57A, the catalytic constant (kcat) in series [1] was found to be 0.000331 ± 5.6e-05 s⁻¹. In addition, the Michaelis constant (KM) in series [7] turned out to be 6360 ± 1900 µM. Further, the “self-cleavage kobs at 640 uM GlcN6P” value in series [6] turned out to be 3.47e-05 ± 9.4e-06 s⁻¹. Further, the “self-cleavage kobs at 2500 uM GlcN6P” value in series [4] is 8.34e-05 ± 2e-05 s⁻¹. The “self-cleavage kobs at 10000 uM GlcN6P” value in series [5] was determined as 0.000205 ± 2.7e-05 s⁻¹.

As for A15G U31G, in series [1], the catalytic constant (kcat) is 0.00736 ± 0.0015 s⁻¹. Further, the KM in series [7] stood at 4370 ± 1200 µM. The “self-cleavage kobs at 40 uM GlcN6P” value in series [2] came to 7.87e-05 ± 9.4e-06 s⁻¹. Besides, the “self-cleavage kobs at 160 uM GlcN6P” value in series [3] is 0.000202 ± 3.2e-05 s⁻¹. Also, in series [6], the “self-cleavage kobs at 640 uM GlcN6P” value was determined as 0.0011 ± 0.00015 s⁻¹. Besides, the “self-cleavage kobs at 2500 uM GlcN6P” value in series [4] turned out to be 0.00262 ± 0.00033 s⁻¹. The “self-cleavage kobs at 10000 uM GlcN6P” value in series [5] stood at 0.00513 ± 0.00051 s⁻¹.

As to A14C U30C A53G, in series [1], the catalytic constant (kcat) stood at 1.63e-05 ± 3.1e-06 s⁻¹.

On to C16U G59A, for which the kcat in series [1] amounted to 6.33e-05 ± 4e-06 s⁻¹. For the same variant, the Michaelis-Menten constant (KM) in series [7] turned out to be 1180 ± 390 µM. In addition, the “self-cleavage kobs at 2500 uM GlcN6P” value in series [4] was 4.86e-05 ± 1.2e-05 s⁻¹. Further, in series [5], the “self-cleavage kobs at 10000 uM GlcN6P” value was found to be 5.59e-05 ± 6.3e-06 s⁻¹.

For C16U C61G, the kcat in series [1] was less than 1e-05 s⁻¹.

G41C C71A: in series [1], the kcat is 0.000115 ± 2e-05 s⁻¹. Moreover, the “self-cleavage kobs at 640 uM GlcN6P” value in series [6] was 5.78e-05 ± 1.1e-05 s⁻¹. Also, the “self-cleavage kobs at 2500 uM GlcN6P” value in series [4] amounted to 0.000181 ± 2.7e-05 s⁻¹. For the same variant, in series [5], the “self-cleavage kobs at 10000 uM GlcN6P” value came to 0.000103 ± 8.1e-06 s⁻¹.

For U30G C71A, in series [1], the catalytic constant (kcat) is 0.00126 ± 0.0004 s⁻¹. Further, in series [7], the Michaelis-Menten constant (KM) is 1140 ± 560 µM. Further, the “self-cleavage kobs at 40 uM GlcN6P” value in series [2] was 7.85e-05 ± 1.2e-05 s⁻¹. Besides, the “self-cleavage kobs at 160 uM GlcN6P” value in series [3] was determined as 0.000138 ± 2.2e-05 s⁻¹. In addition, the “self-cleavage kobs at 640 uM GlcN6P” value in series [6] is 0.000344 ± 6.7e-05 s⁻¹. Further, the “self-cleavage kobs at 2500 uM GlcN6P” value in series [4] came out at 0.00096 ± 0.00014 s⁻¹. Further, the “self-cleavage kobs at 10000 uM GlcN6P” value in series [5] came out at 0.00119 ± 0.00018 s⁻¹.

As to A15U U57A, the catalytic constant (kcat) in series [1] is 4.21e-05 ± 3.2e-07 s⁻¹. Further, the KM in series [7] was 2340 ± 76 µM. Further, the “self-cleavage kobs at 10000 uM GlcN6P” value in series [5] amounted to 3.41e-05 ± 5.8e-06 s⁻¹.

With G13U G66U, in series [1], the kcat was 3.6e-05 ± 2.5e-06 s⁻¹. The KM in series [7] worked out at 3580 ± 630 µM. For the same variant, in series [5], the “self-cleavage kobs at 10000 uM GlcN6P” value came to 2.65e-05 ± 1.1e-05 s⁻¹.

The record behind these values is the supplement of paper PMC7125110.
